{"source": "the supplement of paper PMC10899765"}
{"system": "MCF10A", "test": "percent viability (nuclei count relative to siNT); higher = more viable cells", "conditions": "20 nM; 72 h", "method": "(§1)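 After 72 h, cells were fixed and stained with Hoechst and anti-fibrillarin, and nucleoli per nucleus were counted with CellProfiler. Values are plate-adjusted percent effect for the one-nucleolus and 5+ nucleoli phenotypes, normalised to siNT (0%) and to the positive controls siNOL11 or siKIF11 (100%), as the mean of biological triplicates. Percent viability is the nuclei count relative to siNT.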", "units": {"percent viability": "%"}}
{"sequence": "ACUGUAAACGCUUUCUGAUG [hsa-miR-3607-3p]", "percent viability": 124}
{"sequence": "UAUCAUGGAGUUGGUAAAGCAC [hsa-miR-2681-3p]", "percent viability": 62.4}
{"sequence": "UGUUGUCAUGUUUUUUCCCUAG [hsa-miR-6755-3p]", "percent viability": 26}
{"sequence": "CCUCUGAAAUUCAGUUCUUCAG [hsa-miR-146a-3p]", "percent viability": 125}
{"sequence": "UAGACGUGGUGAAGGAUUGAGUG [hsa-miR-6863]", "percent viability": 47.3}
{"sequence": "GCAGGACAGGCAGAAGUGGAU [hsa-miR-4436a]", "percent viability": 105}
{"sequence": "AGGAGCUAGCCAGGCAUAUGCA [hsa-miR-4633-3p]", "percent viability": 15.3}
{"sequence": "CCCCAGGGCGACGCGGCGGG [hsa-miR-1915-3p]", "percent viability": 87.8}
{"sequence": "CCCCGGGAACGUCGAGACUGGAGC [hsa-miR-1247-3p]", "percent viability": 17.1}
{"sequence": "CUAUGGCGAGACUGGCAUGUACUC [hsa-miR-8074]", "percent viability": 110}
{"sequence": "CCAGAGAUGGUUGCCUUCCUAU [hsa-miR-4756-3p]", "percent viability": 56.8}
{"sequence": "CUGGGAGGUGGAUGUUUACUUC [hsa-miR-30b-3p]", "percent viability": 12.9}
{"sequence": "UGAGGACAGGGCAAAUUCACGA [hsa-miR-5004-5p]", "percent viability": 36}
{"sequence": "UUCACCACCUUCUCCACCCAGC [hsa-miR-197-3p]", "percent viability": 28.8}
{"sequence": "AGGACUGGACUCCCGGCAGCCC [hsa-miR-4515]", "percent viability": 37.2}
{"sequence": "UGUGGGUGGGAAGGACUGGAUU [hsa-miR-6748-5p]", "percent viability": 22.6}
{"sequence": "ACCACUGACCGUUGACUGUACC [hsa-miR-181a-2-3p]", "percent viability": 120}
{"sequence": "GCCUCUCUCGGAGUCGCUCGGA [hsa-miR-3183]", "percent viability": 77.6}
{"sequence": "AUCCUAGUCACGGCACCA [hsa-miR-7975]", "percent viability": 43.7}
{"sequence": "AAUGGCUGUCCGUAGUAUGGUC [hsa-miR-889-5p]", "percent viability": 24.5}
{"sequence": "GGUGCAGUGCUGCAUCUCUGGU [hsa-miR-143-5p]", "percent viability": 89.5}
{"sequence": "UAAAUAGAGUAGGCAAAGGACA [hsa-miR-3121-3p]", "percent viability": 49.3}
{"sequence": "UCGUAUCAGAGAUUCCAGACAC [hsa-miR-6506-3p]", "percent viability": 85.1}
{"sequence": "UCUGUGCUUCACCCCUACCCAG [hsa-miR-6737-3p]", "percent viability": 68.8}
{"sequence": "CCGGCCGCCGGCUCCGCCCCG [hsa-miR-1908-3p]", "percent viability": 96}
{"sequence": "UGGUUGACCAUAGAACAUGCGC [hsa-miR-380-5p]", "percent viability": 17.6}
{"sequence": "CAGGAGGCAGUGGGCGAGCAGG [hsa-miR-4695-5p]", "percent viability": 54.7}
{"sequence": "AAAAGCUGGGUUGAGAGGGCGA [hsa-miR-320a]", "percent viability": 38.1}
{"sequence": "AGUGCCUGAGGGAGUAAGAGCCC [hsa-miR-550a-5p]", "percent viability": 47.1}
{"sequence": "UGAGUCAGCAACAUAUCCCAUG [hsa-miR-5702]", "percent viability": 86.4}
{"system": "MCF10A", "test": "5+ nucleoli phenotype percent effect (relative to siNT 0% and siKIF11 100%); higher = more cells with five or more nucleoli", "conditions": "20 nM; 72 h", "method": "as §1", "units": {"5+ nucleoli phenotype percent effect": "%"}}
{"sequence": "GUGGUUAUCCCUGCUGUGUUCG [hsa-miR-487a-5p]", "5+ nucleoli phenotype percent effect": 24.8}
{"sequence": "CGUCCCACCCCCCACUCCUGU [hsa-miR-4433-5p]", "5+ nucleoli phenotype percent effect": 25.6}
{"sequence": "AUAAGACGAGCAAAAAGCUUGU [hsa-miR-208a]", "5+ nucleoli phenotype percent effect": 14.9}
{"sequence": "UGAGGUAGUAGGUUGUGUGGUU [hsa-let-7b-5p]", "5+ nucleoli phenotype percent effect": 33.9}
{"sequence": "GAAAGUGCUUCCUUUUAGAGGC [hsa-miR-526b-3p]", "5+ nucleoli phenotype percent effect": 57.2}
{"sequence": "UGGCCCAAGACCUCAGACC [hsa-miR-7155-3p]", "5+ nucleoli phenotype percent effect": 18.5}
{"sequence": "CACCAUGGACGGUUUACC [hsa-miR-7153-3p]", "5+ nucleoli phenotype percent effect": -48.4}
{"sequence": "UAGUGGAUGAUGCACUCUGUGC [hsa-miR-3681-5p]", "5+ nucleoli phenotype percent effect": -13.2}
{"sequence": "UCACUGUUCAGACAGGCGGA [hsa-miR-1208]", "5+ nucleoli phenotype percent effect": 20.6}
{"sequence": "CUGACCUAUGAAUUGACAGCC [hsa-miR-192-5p]", "5+ nucleoli phenotype percent effect": -30}
{"sequence": "CGUGCCACCCUUUUCCCCAG [hsa-miR-1227-3p]", "5+ nucleoli phenotype percent effect": -2.5}
{"sequence": "CUUAUCAGAUUGUAUUGUAAUU [hsa-miR-374a-3p]", "5+ nucleoli phenotype percent effect": 33}
{"sequence": "ACCAGCCUGUGUCCACCUCCAG [hsa-miR-6849-3p]", "5+ nucleoli phenotype percent effect": -31}
{"sequence": "CCCUCUCUGGCUCCUCCCCAAA [hsa-miR-4723-3p]", "5+ nucleoli phenotype percent effect": 50.7}
{"sequence": "UGGGAAUGGGGGUAAGGGCC [hsa-miR-6716-5p]", "5+ nucleoli phenotype percent effect": -19.9}
{"sequence": "UUGUGGAUCUCAAGGAUGUGCU [hsa-miR-4752]", "5+ nucleoli phenotype percent effect": -34.7}
{"sequence": "UGAUGGAUAAAAGACUACAUAUU [hsa-miR-3134]", "5+ nucleoli phenotype percent effect": -19.7}
{"sequence": "UCCUUCUGCUCCGUCCCCCAG [hsa-miR-1237-3p]", "5+ nucleoli phenotype percent effect": 6.7}
{"sequence": "AGAGGACCCGUAGCUGCUAGAAGG [hsa-miR-4751]", "5+ nucleoli phenotype percent effect": 41.7}
{"sequence": "UCAAGUAGUUUCAUGAUAAAGG [hsa-miR-5697]", "5+ nucleoli phenotype percent effect": 12.5}
{"sequence": "CCUGACACCCCAUCUGCCCUCA [hsa-miR-6730-3p]", "5+ nucleoli phenotype percent effect": -26.1}
{"sequence": "UGAGGUAGUAGGUUGUAUAGUU [hsa-let-7a-5p]", "5+ nucleoli phenotype percent effect": 61.1}
{"sequence": "CAGGUAGAUAUUUGAUAGGCAU [hsa-miR-3927-3p]", "5+ nucleoli phenotype percent effect": 29.3}
{"sequence": "AACUGAACCAGGAGUGAGCUUCG [hsa-miR-4724-5p]", "5+ nucleoli phenotype percent effect": -1.37}
{"sequence": "GAAUCGGAAAGGAGGCGCCG [hsa-miR-3610]", "5+ nucleoli phenotype percent effect": 19.9}
{"sequence": "GCUGGUGCAAAAGUAAUGGCGG [hsa-miR-548q]", "5+ nucleoli phenotype percent effect": -16.7}
{"sequence": "UGUAGAUACGAGCACCAGCCAC [hsa-miR-3935]", "5+ nucleoli phenotype percent effect": 20.9}
{"sequence": "CUGUCCUAAGGUUGUUGAGUU [hsa-miR-676-3p]", "5+ nucleoli phenotype percent effect": 29.3}
{"sequence": "CUUAGAUUAGAGGAUAUUGUU [hsa-miR-8061]", "5+ nucleoli phenotype percent effect": 58.8}
{"sequence": "ACUGUAAACGCUUUCUGAUG [hsa-miR-3607-3p]", "5+ nucleoli phenotype percent effect": 42.2}
{"sequence": "UAUCAUGGAGUUGGUAAAGCAC [hsa-miR-2681-3p]", "5+ nucleoli phenotype percent effect": 14.2}
{"sequence": "UGUUGUCAUGUUUUUUCCCUAG [hsa-miR-6755-3p]", "5+ nucleoli phenotype percent effect": 34.6}
{"sequence": "CCUCUGAAAUUCAGUUCUUCAG [hsa-miR-146a-3p]", "5+ nucleoli phenotype percent effect": 27.1}
{"sequence": "UAGACGUGGUGAAGGAUUGAGUG [hsa-miR-6863]", "5+ nucleoli phenotype percent effect": -16.5}
{"sequence": "GCAGGACAGGCAGAAGUGGAU [hsa-miR-4436a]", "5+ nucleoli phenotype percent effect": 32.1}
{"sequence": "AGGAGCUAGCCAGGCAUAUGCA [hsa-miR-4633-3p]", "5+ nucleoli phenotype percent effect": -40.1}
{"sequence": "CCCCAGGGCGACGCGGCGGG [hsa-miR-1915-3p]", "5+ nucleoli phenotype percent effect": 42.5}
{"sequence": "CCCCGGGAACGUCGAGACUGGAGC [hsa-miR-1247-3p]", "5+ nucleoli phenotype percent effect": -15.3}
{"sequence": "CUAUGGCGAGACUGGCAUGUACUC [hsa-miR-8074]", "5+ nucleoli phenotype percent effect": 26.4}
{"sequence": "CCAGAGAUGGUUGCCUUCCUAU [hsa-miR-4756-3p]", "5+ nucleoli phenotype percent effect": 4.75}
{"sequence": "CUGGGAGGUGGAUGUUUACUUC [hsa-miR-30b-3p]", "5+ nucleoli phenotype percent effect": -27.8}
{"sequence": "UGAGGACAGGGCAAAUUCACGA [hsa-miR-5004-5p]", "5+ nucleoli phenotype percent effect": -12.8}
{"sequence": "UUCACCACCUUCUCCACCCAGC [hsa-miR-197-3p]", "5+ nucleoli phenotype percent effect": -10}
{"sequence": "AGGACUGGACUCCCGGCAGCCC [hsa-miR-4515]", "5+ nucleoli phenotype percent effect": -14.9}
{"sequence": "UGUGGGUGGGAAGGACUGGAUU [hsa-miR-6748-5p]", "5+ nucleoli phenotype percent effect": -25.6}
{"sequence": "ACCACUGACCGUUGACUGUACC [hsa-miR-181a-2-3p]", "5+ nucleoli phenotype percent effect": 12.6}
{"sequence": "GCCUCUCUCGGAGUCGCUCGGA [hsa-miR-3183]", "5+ nucleoli phenotype percent effect": 40}
{"sequence": "AUCCUAGUCACGGCACCA [hsa-miR-7975]", "5+ nucleoli phenotype percent effect": -29.1}
{"sequence": "AAUGGCUGUCCGUAGUAUGGUC [hsa-miR-889-5p]", "5+ nucleoli phenotype percent effect": -28.6}
{"sequence": "GGUGCAGUGCUGCAUCUCUGGU [hsa-miR-143-5p]", "5+ nucleoli phenotype percent effect": -0.693}
{"sequence": "UAAAUAGAGUAGGCAAAGGACA [hsa-miR-3121-3p]", "5+ nucleoli phenotype percent effect": 15.6}
{"sequence": "UCGUAUCAGAGAUUCCAGACAC [hsa-miR-6506-3p]", "5+ nucleoli phenotype percent effect": -11.2}
{"sequence": "UCUGUGCUUCACCCCUACCCAG [hsa-miR-6737-3p]", "5+ nucleoli phenotype percent effect": -3.33}
{"sequence": "CCGGCCGCCGGCUCCGCCCCG [hsa-miR-1908-3p]", "5+ nucleoli phenotype percent effect": 44.4}
{"sequence": "UGGUUGACCAUAGAACAUGCGC [hsa-miR-380-5p]", "5+ nucleoli phenotype percent effect": -0.352}
{"sequence": "CAGGAGGCAGUGGGCGAGCAGG [hsa-miR-4695-5p]", "5+ nucleoli phenotype percent effect": 14.2}
{"sequence": "AAAAGCUGGGUUGAGAGGGCGA [hsa-miR-320a]", "5+ nucleoli phenotype percent effect": -11.8}
{"sequence": "AGUGCCUGAGGGAGUAAGAGCCC [hsa-miR-550a-5p]", "5+ nucleoli phenotype percent effect": 12.6}
{"sequence": "UGAGUCAGCAACAUAUCCCAUG [hsa-miR-5702]", "5+ nucleoli phenotype percent effect": 52.5}
